The record followed here is article PMC5429807, “Glucose uptake in Azotobacter vinelandii occurs through a GluP transporter that is under the control of the CbrA/CbrB and Hfq-Crc systems”.

One series has as its target T1, Hfq-His (P. putida) (Pseudomonas putida, UniProt Q88DD3 1-86).
T1 sequence: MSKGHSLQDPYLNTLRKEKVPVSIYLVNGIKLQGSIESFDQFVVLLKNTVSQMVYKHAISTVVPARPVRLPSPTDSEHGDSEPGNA
Put plainly: EMSA; Hfq alone, at the tested concentrations; RNA EMSA as in a cited protocol (ref. 13), excess tRNA, non-denaturing polyacrylamide gel; buffer, salt, pH and temperature not given in the material. The note with it: protein: recombinant; tags: His; chain copies: 6; label: 5'-32P; single strand. A general note: Mobility shift assays separate free from complexed probe on a gel.

In series [1] the target is T2, Hfq-His;Crc (Azotobacter vinelandii …, UniProt C1DLQ2;C1DI50 1-84;1-259, |). As to the kind of experiment: EMSA; about equimolar Hfq hexamer and Crc needed; RNA EMSA as in a cited protocol (ref. 13), excess tRNA, non-denaturing polyacrylamide gel; buffer, salt, pH and temperature not given in the material. To be noted: protein: recombinant;recombinant; tags: C-terminal His6;none (intein removed); chain copies: 6;1; label: 5'-32P; single strand.

Another series addresses T3, Crc (Azotobacter vinelandii AEIV, UniProt C1DI50 1-259).
T3 sequence: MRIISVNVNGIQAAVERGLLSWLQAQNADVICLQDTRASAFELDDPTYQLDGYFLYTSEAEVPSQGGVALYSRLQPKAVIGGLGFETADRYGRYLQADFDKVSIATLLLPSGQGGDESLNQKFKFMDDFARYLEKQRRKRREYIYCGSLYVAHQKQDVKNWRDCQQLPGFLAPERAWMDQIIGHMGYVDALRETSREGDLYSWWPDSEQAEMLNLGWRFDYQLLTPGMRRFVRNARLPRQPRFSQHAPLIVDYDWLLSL
As to the kind of experiment: EMSA; Crc alone; RNA EMSA as in a cited protocol (ref. 13), excess tRNA, non-denaturing polyacrylamide gel; buffer, salt, pH and temperature not given in the material. To be noted: protein: recombinant; tags: none (intein removed); label: 5'-32P; single strand.

Series [2] has as its target T2, Hfq-His;Crc. Put plainly: EMSA; control RNA; stable complex not observed; RNA EMSA as in a cited protocol (ref. 13), excess tRNA, non-denaturing polyacrylamide gel; buffer, salt, pH and temperature not given in the material. The note with it: protein: recombinant;recombinant; tags: C-terminal His6;none (intein removed); chain copies: 6;1; single strand.

T2 sequence (C1DLQ2 whole entry, one chain of several): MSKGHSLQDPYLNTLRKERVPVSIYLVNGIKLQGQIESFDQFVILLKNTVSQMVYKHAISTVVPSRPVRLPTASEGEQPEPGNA

For AAGCAACAAUCACAACAAGAGGAAAU (ssRNA) [gluP A-rich RNA oligo], the binding result was “no binding” with Hfq-His (P. putida), “binds” with Hfq-His;Crc [1] and “no binding” with Crc.
For the molecule UUCCCCAUCUCCCCAUCCAUAGGGGC (ssRNA) [DmpR 6C control RNA], in the series with Hfq-His;Crc [2], the binding result is given as “no binding”.
